# Measured values as given in patent publication US20060099648A1, “Compositions and methods for epitope mapping” (priority 2000, published 2006).
# Target: Human IgG (Calbiochem; San Diego Calif.) (human)
# Test: IgG displaced from peptide pin; competitor MSP1-19
row,Binder,ΔF (%)
1,NISQH [Peptide# 1],< 5
2,KQCPQ [Peptide# 10],< 5
3,QCPQN [Peptide# 11],< 5
4,CPQNS [Peptide# 12],< 5
5,PQNSG [Peptide# 13],< 5
6,QNSGC [Peptide# 14],< 5
7,NSGCF [Peptide# 15],< 5
8,SGCFR [Peptide# 16],< 5
9,GCFRH [Peptide# 17],< 5
10,CFRHL [Peptide# 18],< 5
11,FRHLD [Peptide# 19],< 5
12,ISQHQ [Peptide# 2],< 5
13,RHLDE [Peptide# 20],< 5
14,HLDER [Peptide# 21],< 5
15,LDERE [Peptide# 22],< 5
16,DEREE [Peptide# 23],< 5
17,EREEC [Peptide# 24],< 5
18,REECK [Peptide# 25],< 5
19,EECKC [Peptide# 26],< 5
20,ECKCL [Peptide# 27],< 5

row,Binder,ΔF (%)
1,CKCLL [Peptide# 28],< 5
2,KCLLN [Peptide# 29],< 5
3,SQHQC [Peptide# 3],< 5
4,CLLNY [Peptide# 30],< 5
5,LLNYK [Peptide# 31],< 5
6,LNYKQ [Peptide# 32],< 5
7,NYKQE [Peptide# 33],< 5
8,YKQEG [Peptide# 34],< 5
9,KQEGD [Peptide# 35],< 5
10,QEGDK [Peptide# 36],< 5
11,EGDKC [Peptide# 37],< 5
12,GDKCV [Peptide# 38],< 5
13,DKCVE [Peptide# 39],< 5
14,QHQCV [Peptide# 4],< 5
15,KCVEN [Peptide# 40],< 5
16,CVENP [Peptide# 41],< 5
17,VENPN [Peptide# 42],< 5
18,ENPNP [Peptide# 43],< 5
19,NPNPT [Peptide# 44],< 5
20,PNPTC [Peptide# 45],< 5

row,Binder,ΔF (%)
1,NPTCN [Peptide# 46],< 5
2,PTCNE [Peptide# 47],< 5
3,TCNEN [Peptide# 48],< 5
4,CNENN [Peptide# 49],16
5,HQCVK [Peptide# 5],< 5
6,NENNG [Peptide# 50],5
7,ENNGG [Peptide# 51],< 5
8,NNGGC [Peptide# 52],6
9,NGGCD [Peptide# 53],10
10,GGCDA [Peptide# 54],< 5
11,GCDAD [Peptide# 55],7
12,CDADA [Peptide# 56],< 5
13,DADAK [Peptide# 57],< 5
14,ADAKC [Peptide# 58],< 5
15,DAKCT [Peptide# 59],< 5
16,QCVKK [Peptide# 6],< 5
17,AKCTE [Peptide# 60],5
18,KCTEE [Peptide# 61],6
19,CTEED [Peptide# 62],< 5
20,TEEDS [Peptide# 63],< 5
